Assay: soluble fraction after stress (log2 fold change); higher = more stays soluble; pooled small domains, quantitative proteomics
Conditions: stress: 50 degC
Summary of the method: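 Quantitative proteomics served as the high-throughput read-out for pooled custom libraries of small protein domains. Each was stressed at 50°C. Aggregation propensity is expressed as the base-two log fold change in soluble protein after stress. A higher value means a larger share of the protein remains in solution.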

Sequence	soluble fraction (log2)
HMDYTGIPQSLLDLMKKDNIMPMQIQRAVAERNYYPVDTPISNYDPMFIEAKLVGAWDQVLNVISHLDLP	-0.649
HMDYTPIEVKDLPQAIQDALTKNFSEYTVKSAAYQEDEDGVKIYQVTVVDEEGTEANIFFTEKGE	0.0163
HMEADERRNEILDAAETLITEKGYSKTTIIDILNQVGIAKGTFYYYFKSKEEVMDAIIERFI	-2.25
HMEAEGLDFAPMPGEIGKKLWQEVSKEAWAGWLKHQTMLVNENRLSFVDPAARKYLTEQTEAYFFG	0.131
HMEAEMLYQVKVKITNLVIRSGAGAIYPIVKRYASGVLPIYEEKNGYGKIAVGQWISLSPEFVERVD	-0.385
HMEAEPRLLDLPPGTRAGRLDKVLAQLLPEHSRSRLQGWIERGGVLVNGKEASVRQVVGPGDQLTVWEEAA	-0.0918
HMEAEQLEAIRSALQQLSDMNRTVFNLHVVDGYKHEEIAAMLNITTGTSKAHLHRAKKRLRELID	-0.975
HMEAEVIKTASDMADRNGLHNVSLKAIAENLGIRTPSLYNHIGSLDELLREIAHSGMRTMNE	0.02
HMEAFAEAVASMLRKLQPEFAIDLVGPRELLVNGRRLDLENLYRMVNHEPVRGQEIVEHYLDQLFAG	-0.53
HMEAGLRMPEQLTAFSALALLQKVRDSGPLTDAQKEQLDADVLRIEASHFGKADREALELEEILKQWLSRV	-0.135
HMEAKSSTKALLDVVLGRNGVSTANVAKSLNISVQNASTRLKKLSSEGVIMRSEVSSPTGGIEFIYS	-0.0504
HMEAKTSNPDYHARLGLTEGEGNDSALGVSVKAAEGGFGLLFGNKVGSDQLVRFANEDQVWLVNRALS	0.0188
HMEALNIEQKKVEIINVLLEKGKGKGRLSYKEISDQIDTVELDKDQMDELYETLMTNGIEIV	0.114
HMEALPSNLRRLRLEAQLTLDRLGALSGVSRAMISKIERGASVPTATMLGKLAAALQVSLSQLL	-0.97
HMEAMITEVKRINYGLISDISKSLDPFKSEGGHIIVDKRTNTFILTDLRANIEKMLWSIEIMD	-0.111
HMEAPNELLVPEGARPARADRVLAAAFPEHSRTALQRAFDAGLVRRANLVLSRDTAVAGGDRIAFSLPAV	-0.00557
HMEARYQLREVSLDGLRSGMILNADVLSTDGVLMARKGLEVSGLLRSRLEAFAKMERIEPTFKVLVPIAPP	-0.389
HMEASSTAIQAMIRRLIDDENPRKPLSDAKLADLLKSSGIPVARRTVAKYREAMNISASHERVRI	-0.356
HMEATEFYLEDLTGQMYNDVVNDEKYAGKIVFEKEEVQSDGEEAIGQILNQRPAGNMNVRIGTTVTLVVNA	-0.0405
HMEATVGSRVRLARIGLTLTQKQLAQAVGVSANHLAMVERGSKHASEDLLQRIATATHTTYEWLMGTSEHQ	-0.845
HMEAVIENAAIIKQNSGGYAVRATVNGVDLGMKPVERATALLYFSLTDKLEKDRLLSHTLQKTYGDLSA	-0.254
HMEAYLPVTVVSDGKILTGNLEKAGKNEKWLENVLSELKTDVKNTLLLTVDPKDGLIFYPKG	0.0932
HMEAYMVPNVKNKTLNEAQQALSNQKLKGLVIDSSYVKGVPDGMVLDQNPAGGARVKEGRTIYLTVTTS	0.318
HMEDADERRALEVLNQLLDLPEREQEAALAALSLPPALARRVRSLLSVQTRAADLFDTAPSP	-0.0946
HMEDAFLQRLISIIEANLSNVDFNVKMLAEQLNMSQPTLYRKVKQRSELSVIDMIRSIRILSLIHISEPTR	-0.988
HMEDDRLIQNLLLTAKNLVMDVGRMDESALAENEDTVRTAMLFALGYLYENRSNPDYHKLTLNLRSILFA	-0.493

Sequence	soluble fraction (log2)
HMEDEISLGAINVPRGSVIVTAGGARLVEGSDYTVDYYSGTVKILNKSLLDAGTPINVSLET	0.0198
HMEDETAKVLRLLAENNGYLPYNDKSDPTDIYAFFGMSKKAFKMTTGNLYKQKKIQFTQTGIQLIE	-0.347
HMEDEVSSSAAYQALLEKGVSKTLARSWVIDYGEAYVLDKVDLTTSQAARGKIKSSTAGFLKAAIEEDFHN	-0.244
HMEDGEALARAVASLPGKYREVLFLKYSHGYSVDEIALILSMSKENVKKTIQRARKKLEQLLESE	-0.898
HMEDGEVTVPDLRGLTIKEAGTILEKLGLHLSPVGTGLAVRQDVAPGSKVARDTTITVEFEPPDIQVLR	0.103
HMEDIKHVVANNIKKYRKEERLTLQQLSYLTGVSKTMLNQIETEKSSPSITILWRISSGLKIPLSKLISSP	-1.61
HMEDIPENIRYKFLLKELKENEHLNILDKENIARKLTEIDLPELEKELLENEILNSTIKDYLGIKLV	0.173
HMEDKFEYQGELKSLIEPTSFSELVSALNVRDTLQAIIDFAMREEDTSGYEELKVRQNDYIQEYLNSIGNF	-1.04
HMEDKFEYQGERKSLIYPTSFSELTEALGVRNMLQSIIDFATRDEDTSGYEEMKERQNEYIQEYL	0.0302
HMEDKKQVLYELITDKSYRPLRFKELAVLLMVPKALRGELKQTLDELIKEGKITVDSSSRYRAA	0.133
HMEDLDKIISAYLDENPQIVSDYGKGNKKAVNSAIGFVMKSTGGKYSSSDIVDAVRSMIVSISV	-0.482
HMEDNYYENKINYLFGYLDEADKEISVNSILDFHLAHRTNPEFVFEPKKNTNPLIWKYLSNSNLLY	-0.0177
HMEDPLGDLIGRIAAATGRPVQDIVAEVHRVVTDHFDGNLRVEAAAVILARKYGVAFEDKLSALQRSV	0.00767
HMEDSAKRHQIMDGARRVFMDLGFDGASMNEIARAAGVSKGTLYVYFTDKNRLFEAIVEQESL	-1.37
HMEDSEYDRLLAEIDEGIRKAIETLEPVELSPQNARVRRIQHQIIEKYQLHSDSVGEEPYRRVRIL	-0.593
HMEDSHIYPVSFNGKMRFKLELPVSMNKKEIEEVVLQHEDAQKWLNGQNPKKVIVVPKRIINIV	0.0081
HMEDTVNVPIQINGKLRHVIQVQIGTSEEEIQKIALSEEQVKKFTDGHEILKVMVPKGKLVSIVI	-0.129
HMEDVLVTQIIQLKHVDANDMKTLFTPLLSRGSSQLLAYPQSNVLIITDTRSNIKKITEILDIIDKS	-0.629
HMEDVRSLTGPEKAAIILLSLGEEHGQGVWRMFDDEEVKEVSQIMANLGTISASVVEKLLVEFVSQMST	-0.873
HMEDYYKILGVQSNSNPDDIKKAYRKLSLKHHPDRGGDASEFKKINEAYQTLGTPEKRKMYDMQQNN	-0.0117
HMEEEPALLRDLLAKTLEFGLIPQLSHHPALADRTQQLASAVRAAGSASALRNAAASLKSLWIDVDQ	-0.0318
HMEEFDLNAYITKINSAATLNALKQAYAEANSAALSVKDKDAQRKIIVEKDKRKAELIQETAG	0.31
HMEEIALTDILNRFLSSLSLEQRKIFMRRYWYLSPIKEIATEYGMSESKIKMSLFRSRNELKKLLEKEGI	-0.396
HMEEINTAPVFKNIIEIAEYAKTKFTTVEEIPKMIEFIETANSKLDNPHDEESVNELINALSTNIRKNV	0.193
HMEEITLIAEDEGLRLDTWLTDKLKDYSRSYIQKLMEDELVLVNGKARKANYRIKTGDEIHVSIPEPE	-0.0342
HMEELLVAVKADGSIWADGRPITPDGLASFIDSKPADAVLNLAVDKKAPFAAFVKVVDVAKEKKSGRFVIR	0.0577

Sequence	soluble fraction (log2)
HMEELPIIVAQRFLNIFRQLHIFSDERREAFNKMLLELPPEVKSIFQSLPGGTPLQEYMEDLEQKSK	-0.055
HMEELTPLQKYVFDYESDISDEVDMRAIKGLENANDVYDYYANVRGWEGDPDLEDDLDNIYRQVKARFA	0.0161
HMEEMTIRQKRTMIFFIEATKHILQEDGYDHLTIREIAQRAGYNAATLYHYFRDLDELIIYGSVG	-0.238
HMEEPEELYRVKILIYNLLVRNGPGILYTRLRRADYPGEYGIYEEKNGYGKISATLSEWISLNTEYVQRLD	-2
HMEEVYVPDIRDKSISDAKKILSQMGLKYRIEGEGYDDSTVIKDQTPKPGALLAKDSVVIAYINE	0.126
HMEEYLENLTQSKLLHMLDQLSPAYKTVFTLFVLDELSHEEISKMLNISIGTSKSNLFRARKVMRVLMESE	-0.397
HMEFDIDAAIHAALEPQAVMRAWFGHEGREYPEDFGVVFFRGWESFTHQEKVEAVRDAKKVLDRAVR	-0.516
HMEFDSLINYEVKKKETLFSISKKFKIEINDLLSFNTELKNNKLKKNSIIIIPLKKKIVESQNFEKQKIID	-1.37
HMEFENIEQRKQYWSDLYRELKAGQDAYAKELKKGTEGYTQDELDILKEFTDEAKKQMEAAGVEATDEFAS	-0.187
HMEFLLAIQPFVLLTDHANLTFLREQTDSMMKRIQINISGFEIEFRYVPGLTNILPDKMSRV	-0.0431
HMEFQEQLYRLRKQAGLSQEELSHIIGVSRQAVQKWEAGSARPDLDNLIALASHFKLSLDQLVGLT	-0.555
HMEFQSIGGKIRIGREREHLTQAELAQKLSVTRQAVSNWERDKTLPDIYMIREIAEIFGLTLDEFMEGAKK	-0.672
HMEGDAFAFTGDIQKDLLSITAVHPMRREAVDALIAKAGASWAIVEKLLAHGELTEAKHDGHLFYLRKF	-0.81
HMEGIAEILPASVRQKYGLIGLYDALRGLHFPGNMEEIKAARQRLAFEDTLMFSLTLSMMQYS	-0.0198
HMEGIAYDINTAPEHIDLKAEDMMATFNIGKTALWRWVKQKILPPPYEYRSQAAHWTIGQIRDWKTA	-0.0672
HMEGLDDKTKIILFAGDKKEQEYSLADLKSKLNITENLTESELIKLLEKQGYVLDVNANNEFMFKKD	-0.0985
HMEGNFFADIRQELMRELDQEAEWSDVQILEKIDDLVLLRTRRSSLTVNEKEQLRKELFYSVRK	-0.0909
HMEGRTVMATTAVNVRSGPGTSYKILGVLYPGHTAQQIGNTRYGWAQVTWKGHTAYIAARYLRDS	-2.41
HMEGSLQEDKVKEYQDRFKEELSNDLNTANSITVLYDLIKDDTLNGTTKRYLIEDFDKILSLDLIKE	0.0632
HMEGSVTVMVNGESVTMTGKQNYIFVDVFDWYSFDLSAGKGRAIATLVNGKEAEFSQPLANGDNIELYWKE	-0.118
HMEGTAAAVALKGLMEQSGVDLREVMAAVESRGYYPKGTPFENYDPAFVSGVLVGAWDQVYKMILDQRPIP	-0.217
HMEGVSPQTVQEHIRRFIAAEDPASPLSDEALREALGNLGINASRRTVAKYRGEMGIPSSAQRKR	-0.053
HMEGVSSESVKEMLKSIIDGEDPHNPVSDQRITDILNSRGINISRRTVAKYRDELGIASSSRRKRY	0.0818
HMEGYLYLSESQNELILKNLKTPLKYNLYNASGKLIKKGNIKNTLDISELPKGVYIFTSSDNSFSKKFLKT	-0.0444
